Assay results from patent publication US20220144922A1 (Adimab, published 2022).
Changes are numbered by the printed parent chain.

B1: ADI-15647 (antibody, V domains shown)
VH: QVQLVQSGAEVKKPGSSVRVSCEASGGTFSTYAISWVRQAPGLGLEWMGGIHPISGTANYAQSFQDRLTITVDKSTSTAYMDLSSLRSEDTAIYYCARVGLGRTWIYDTMGYLDYWGQGTLVTVSS
VL: EIVLTQSPATLSLSPGERVTLSCRASQSVNDYLAWYQQKPGQAPRLLIYDASNRATGIPARFSGSGSGTDFTLTISSLEPEDFAVYYCQHRTNWPSLTFGGGTKVEIK
B2: ADI-15657 (antibody, V domains shown)
VH: QVQLVQSGTEVKKPGSSVKVSCKASGGTFSSYAISWVRQAPGQGLEWMGGIHPTSGPANYAQKFQDRVTITVDKSTSTVYMDLSSLRSEDTAVYYCARVGVGRTWIYDTMGYLDFWGQGTLVTVSS
VL: B1 VL with L4M, V19A, N30S, S76T, T92S, N93D, V105L
B3: ADI-15665 (antibody, V domains shown)
VH: QVQLVQSGPEVKRPGSSVKVSCKASGDTFNNYAISWVRQAPGQGLEWMGGIHPTTATPNYAQKFQGRVVISADKSTSTAYLDLSRLRSEDTAMYYCARVGVGRTWVYDIMGYLDYWGQGTLVTVSS
VL: B1 VL with V19A, N30S, K39R, N53T, A60D, S65G, T92N
B4: ADI-15614 (antibody, V domains shown)
VH: EVQLLESGGGLVKPGGSLRLSCAASGFTISGYNMFWVRQPPGKGLEWVSSITAGSSYLNYADSVKGRFIVSRDNAKNSLYLQMNSLRAEDTAVYFCARAPLLPAMMDLWGQGTTVTVSS
VL: QSVLTQPPSVSGAPGQRVTISCTGSSSNIGAGYDVHWYQQLPGTAPKLLIYTNNNRPSGVPDRFSGSKSGTSASLAITGLQAEDEADYYCQSYDRSLNGYVFGTGTKLTVL
notes: IgG
B5: ADI-15623 (antibody, V domains shown)
VH: B4 VH with S30G
VL: B4 VL with L4V, K107Q
notes: IgG; also called Antibody Number 188

Each binder was assayed against RSV F protein of subtype B strain 18537, on virus (respiratory syncytial virus subtype B …, UniProt P13843 26-574) (assay: cell-based or functional assay).

Binder	Neut IC50 (ug/ml) subtype B [µg/mL]
B1	> 10
B2	> 10
B3	6.25
B4	0.059
B5	0.108

These binders were tested against T1, RSV F protein of subtype A strain A2, on virus (respiratory syncytial virus subtype A …, UniProt P03420 26-574) (assay: cell-based or functional assay).

Binder	Neut IC50 (ug/ml) subtype A [µg/mL]
B1	> 10
B2	> 10
B3	12.7
B4	0.027
B5	0.054

The binders below were run against T2, prefusion-stabilized RSV F ectodomain (DS-Cav1), subtype B (respiratory syncytial virus subtype B) (assay: BLI, IgG on sensor).
T2 construct: extracellular domain; also called Prefusion subtype B

Binder	Kd [nM]
B4	0.466
B5	0.435

Each binder was assayed against HMPV F protein (NL/1/00, A1 sublineage), on virus (human metapneumovirus) (assay: cell-based or functional assay).

Binder	HMPV-A1 IC50 [µg/mL]
B1	20.3
B2	11.9
B3	13.5
B4	0.22
B5	0.37

Biological target: T1, RSV F protein of subtype A strain A2, …
Assay: cell-based or functional assay
Remark: another data set of the same source

Binder	RSV-A2 IC50 [µg/mL]
B1	> 25
B2	> 25
B3	12.7
B4	0.03
B5	0.05
